US20150299328A1 (ARMAGEN TECHNOLOGIES, published 2015)

Columns and labels:
[1] = molecular target: T1, HIR extracellular domain (ECD) (human, UniProt P06213 28-956, limits assumed); test: ELISA, HIR ECD plated
T1 construct: extracellular domain; also called HIR ECD; IR ECD
Experimental: The extracellular domain (ECD) of the HIR was purified by lectin affinity chromatography from serum free medium conditioned by CHO cells that were permanently transfected with the HIR ECD. The HIR ECD was plated in ELISA wells to bind the chimeric HIRMAb without IDUA fused, and the CHO-derived HIRMAb-IDUA fusion protein. […] The binding constants shown in FIG. 18 were determined by non-linear regression analysis of the binding isotherms.

[2] = molecular target: T1, HIR extracellular domain (ECD); test: ELISA, HIR ECD plated, biotinylated goat anti-human IgG detection
Experimental: The affinity of the fusion protein for the HIR extracellular domain (ECD) was determined with an ELISA. CHO cells permanently transfected with the HIR ECD were grown in serum free media (SFM), and the HIR ECD was purified with a wheat germ agglutinin affinity column, as previously described in Coloma et al. (2000) Pharm Res, 17:266-274. The HIR ECD was plated on Nunc-Maxisorb 96 well dishes and the binding of the HIR Ab, or the HIR Ab-IDUA fusion protein, to the HIR ECD was detected with a biotinylated goat anti-human IgG (H+L) secondary antibody, followed by avidin and biotinylated peroxidase (Vector Labs, Burlingame, Calif.). The concentration of either HIR Ab or HIR Ab-IDUA fusion protein that gave 50% maximal binding was determined with a non-linear regression analysis.

Row | EC50 [1] [nM] | EC50 [2] [nM] | Binder
1 | 0.75 | 0.61 | chimeric HIR Ab (human-mouse chimeric antibody to the human insulin receptor) (antibody, human IgG1, kappa, Human IgG1 heavy chain constant region and human kappa light chain constant region; also called chimeric HIRMAb; HIRMAb) heavy: not shown light: DIQMTQSPSSLSASLGERVSLTCRASQDIGGNLYWLQQGPDGTIKRLIYATSSLDSGVPKRFSGSRSGSDYSLTISSLESEDFVDYYCLQYSSSPWTFGGGTKMEIKRTVAAPSVFIFPPSDEQLKSGTASVVCLLNNFYPREAKVQWKVDNALQSGNSQESVTEQDSKDSTYSLSSTLTLSKADYEKHKVYACEVTHQGLSSPVTKSFNRGEC
2 |  | 0.93 | HIR Ab-IDUA fusion protein (COS cell derived; HIR Ab-HC-IDUA fusion/HIR Ab-LC antibody) (antibody, human IgG1, kappa, Bivalent antibody-enzyme fusion; It was made by dual transfection of COS cells with pHIR Ab-LC and pCD-HC-IDUA; also called HIR Ab-IDUA fusion antibody) heavy: not shown light: DIQMTQSPSSLSASLGERVSLTCRASQDIGGNLYWLQQGPDGTIKRLIYATSSLDSGVPKRFSGSRSGSDYSLTISSLESEDFVDYYCLQYSSSPWTFGGGTKMEIKRTVAAPSVFIFPPSDEQLKSGTASVVCLLNNFYPREAKVQWKVDNALQSGNSQESVTEQDSKDSTYSLSSTLTLSKADYEKHKVYACEVTHQGLSSPVTKSFNRGEC
